Measured values reported in PMC11624268, “Leishmania protein KMP-11 modulates cholesterol transport and membrane fluidity to facilitate host cell invasion” (EMBO Reports, 2024).
Numbering of substitutions follows the chain as printed. Names may count otherwise.

B1: purified recombinant KMP-11 (kinetoplastid membrane protein-11), wild type (natural protein)
chain: MATTYEEFSAKLDRLDQEFNRKMQEQNAKFFADKPDESTLSPEMREHYEKFERMIKEHTEKFNKKMHEHSEHFKQKFAELLEQQKAAQYPSK
notes: amino-terminal stretch (1-19) of kinetoplastid membrane protein-11 (KMP-11), Leishmania donovani (so in the source); rest of kinetoplastid membrane protein-11 (KMP-11), Leishmania donovani, after the printed stretch 1-19; Purification by the procedure of Sharma et al, 2013; also called r-KMP-11; WT KMP-11; source: pET28a, bacterial culture, purified (Ni-NTA, endotoxin removal column, gel …)
B2: Alexa488-maleimide labeled r-KMP-11 S38C (kinetoplastid membrane protein-11, single cysteine mutant) (natural protein)
chain: B1 chain with S38C
modifications: Alexa-488 maleimide on the single cysteine (S38C); labeling percentage 86%
notes: amino-terminal stretch (1-19) of kinetoplastid membrane protein-11 (KMP-11), Leishmania donovani (so in the source); rest of kinetoplastid membrane protein-11 (KMP-11), Leishmania donovani, after the printed stretch 1-19; The labeled protein was passed through Ni NTA after labeling, so the tag was probably still there; Purification by the procedure of Sharma et al, 2013; also called …

Tests used:
[1] = target: the molecule itself; experiment: negative stain TEM; purified KMP-11 (0.1 mg/ml) in the presence of DPPC ERG (30%) SUVs; 50 mM tris pH 8.0, 150 mM NaCl; 1% uranyl acetate
[2] = target: the molecule itself; experiment: single molecule photobleaching step analysis (TIRF microscopy); 50 nM Alexa-488 maleimide labeled KMP-11 (S38C) on PEG cushioned supported bilayer of DPPC-ERG (30%); 30 min incubation; manual step counts from 235 spots
[3] = target: B1; experiment: fluorescence correlation spectroscopy (FCS); 50 nM Alexa488Maleimide labeled r-KMP-11 in the presence of unlabeled r-KMP-11 at different total concentrations; diffusion time read out; in the absence and presence of different salt concentrations (salt facilitates self-association); conditions: both partners purified

## B1
[1]
  stoichiometry N: 4

## B2
[2]
  stoichiometry N: 4
[3]
  binding result: binds
